Results reported in US20060024724A1.

Molecular target: oncofetal fibronectin (human) (UniProt P02751)
Assay: lateral-flow sandwich test strip (mobile FDC-6 conjugate, goat polyclonal anti-fibronectin capture), TLiIQ reflectance reader, at 50 ng/ml oncofetal fibronectin

Sequence of UniProt P02751 (P02751 32-2477): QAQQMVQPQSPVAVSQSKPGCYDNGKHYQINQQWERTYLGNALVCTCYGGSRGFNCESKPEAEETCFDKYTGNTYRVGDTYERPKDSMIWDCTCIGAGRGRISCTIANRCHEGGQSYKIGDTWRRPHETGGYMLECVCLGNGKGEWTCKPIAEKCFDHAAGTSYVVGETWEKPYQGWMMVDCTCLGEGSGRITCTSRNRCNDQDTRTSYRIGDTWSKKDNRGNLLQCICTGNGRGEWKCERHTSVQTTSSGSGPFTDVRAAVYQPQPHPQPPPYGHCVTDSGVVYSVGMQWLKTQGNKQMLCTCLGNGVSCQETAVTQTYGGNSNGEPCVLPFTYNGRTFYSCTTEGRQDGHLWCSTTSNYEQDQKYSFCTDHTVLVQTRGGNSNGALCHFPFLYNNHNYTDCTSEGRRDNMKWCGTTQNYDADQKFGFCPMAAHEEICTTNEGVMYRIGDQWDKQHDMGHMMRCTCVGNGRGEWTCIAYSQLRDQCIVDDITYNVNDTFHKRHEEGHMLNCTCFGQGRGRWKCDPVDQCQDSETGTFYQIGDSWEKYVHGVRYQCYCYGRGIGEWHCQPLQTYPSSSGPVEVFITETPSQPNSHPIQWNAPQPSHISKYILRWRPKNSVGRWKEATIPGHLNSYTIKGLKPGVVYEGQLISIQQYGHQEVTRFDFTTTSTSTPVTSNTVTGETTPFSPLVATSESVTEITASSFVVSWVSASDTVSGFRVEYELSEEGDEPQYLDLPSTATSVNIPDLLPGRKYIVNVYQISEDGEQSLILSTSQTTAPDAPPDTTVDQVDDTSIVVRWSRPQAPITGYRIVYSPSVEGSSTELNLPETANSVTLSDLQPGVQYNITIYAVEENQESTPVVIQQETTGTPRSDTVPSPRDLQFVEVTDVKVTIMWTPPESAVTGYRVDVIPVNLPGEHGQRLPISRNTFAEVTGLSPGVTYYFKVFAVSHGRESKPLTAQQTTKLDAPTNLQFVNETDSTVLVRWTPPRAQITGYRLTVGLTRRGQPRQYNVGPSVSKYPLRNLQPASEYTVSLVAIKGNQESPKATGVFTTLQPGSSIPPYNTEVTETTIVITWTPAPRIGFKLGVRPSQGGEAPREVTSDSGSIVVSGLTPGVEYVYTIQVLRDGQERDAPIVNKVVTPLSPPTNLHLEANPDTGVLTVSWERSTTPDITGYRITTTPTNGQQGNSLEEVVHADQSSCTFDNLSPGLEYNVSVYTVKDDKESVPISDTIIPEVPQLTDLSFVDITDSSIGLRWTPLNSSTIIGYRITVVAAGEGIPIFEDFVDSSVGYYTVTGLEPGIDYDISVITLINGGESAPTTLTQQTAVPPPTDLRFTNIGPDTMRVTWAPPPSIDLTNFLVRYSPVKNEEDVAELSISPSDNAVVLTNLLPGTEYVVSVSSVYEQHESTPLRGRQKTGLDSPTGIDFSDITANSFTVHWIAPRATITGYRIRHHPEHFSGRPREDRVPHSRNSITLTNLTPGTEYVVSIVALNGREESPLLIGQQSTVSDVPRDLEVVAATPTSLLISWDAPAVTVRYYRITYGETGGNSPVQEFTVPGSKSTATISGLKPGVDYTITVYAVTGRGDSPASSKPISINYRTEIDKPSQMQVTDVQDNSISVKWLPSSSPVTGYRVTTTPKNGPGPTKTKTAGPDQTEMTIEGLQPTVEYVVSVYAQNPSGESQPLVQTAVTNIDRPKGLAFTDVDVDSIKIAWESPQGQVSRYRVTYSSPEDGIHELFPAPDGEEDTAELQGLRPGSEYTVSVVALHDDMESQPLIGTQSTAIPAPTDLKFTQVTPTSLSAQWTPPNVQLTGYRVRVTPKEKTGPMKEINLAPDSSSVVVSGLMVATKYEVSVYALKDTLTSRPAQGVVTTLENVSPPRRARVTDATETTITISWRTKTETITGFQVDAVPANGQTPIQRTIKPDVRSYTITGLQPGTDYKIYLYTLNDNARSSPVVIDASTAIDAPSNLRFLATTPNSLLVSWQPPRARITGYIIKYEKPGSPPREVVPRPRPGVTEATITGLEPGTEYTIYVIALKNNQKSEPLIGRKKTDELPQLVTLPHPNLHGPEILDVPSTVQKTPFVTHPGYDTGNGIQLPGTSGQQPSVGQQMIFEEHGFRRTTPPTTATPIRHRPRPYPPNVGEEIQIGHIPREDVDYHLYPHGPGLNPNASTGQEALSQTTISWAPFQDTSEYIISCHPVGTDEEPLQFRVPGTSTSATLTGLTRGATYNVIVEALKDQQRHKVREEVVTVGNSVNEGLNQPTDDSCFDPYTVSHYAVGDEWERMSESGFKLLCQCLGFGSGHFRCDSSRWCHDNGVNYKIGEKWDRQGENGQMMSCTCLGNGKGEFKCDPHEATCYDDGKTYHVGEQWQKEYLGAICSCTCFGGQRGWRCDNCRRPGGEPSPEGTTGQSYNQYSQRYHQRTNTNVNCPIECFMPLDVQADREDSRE

reflectance signal: 0.315
Substance: FDC-6 monoclonal antibody (produced by hybridoma ATCC HB 9018)
